For test [1], the target named is T1, Fc tagged human SIRPα v1 ECD recombinant protein (human, UniProt P78324 31-370).
T1 construct: range 1-370; cloned range M1-R370 includes the signal peptide; also called hSIRPα V1; not shown: human IgG Fc region (hFc) of the pCPC vector
Briefly: ELISA. The method, then:
(§1) Binding specificity of the purified hybridoma antibodies against SIRP family members was detected by ELISA assay using recombinant proteins of Fc tagged human SIRPα v1 ECD, human SIRPα v2 ECD, human SIRPβ ECD and human SIRPγ ECD. Briefly the antibodies were incubated with ELISA microplate coated antigens at 37° C. for 1 hour. After washing, horseradish peroxidase (HRP) labeled anti-mouse or anti-human IgG 2nd Ab (Sigma) was added and incubated at 37° C. for 1 hour. Then, 100 μl/well of TMB solution (Biotechnology) was added. After incubation for 15 minutes at room temperature, the reaction was stopped by the addition of 50 μl of 1N HCl. OD 450 nm was read and EC₅₀ was calculated. Other than 060 and HEFLB, all of the antibodies as tested can bind with both human SIRPα v1 and SIRPα v2. 060 and HEFLB can bind with human SIRPα v1 but not v2. Other than 055, all of the antibodies as tested can bind with human SIRPβ. In comparison with other known anti-SIRPα antibodies, only 022, 035 and 050 can bind with human SIRPγ weakly.
(§2) The purified chimeric antibodies were applied for binding specificity analysis and species cross reactivity analysis (refer to methods described in Example 3.3 and 3.4). FIGS. 1A to 1D show binding specificity of anti-SIRPα chimeric antibodies against recombinant proteins of human SIRPα v1 ECD (A), human SIRPα v2 ECD (B), human SIRPβ ECD (C) and human SIRPγ ECD (D) as measured by ELISA analysis.
On the technique in general: In an ELISA, binding on a coated surface is turned into a signal by an enzyme label.

The target of test [2] is T2, Fc tagged human SIRPα v2 ECD recombinant protein (human).
T2 construct: range 1-369; cloned range M1-R369 includes the signal peptide; also called hSIRPα V2
Briefly: ELISA. The procedure:
as §1, §2

For test [3], the target named is T3, Fc tagged human SIRPβ ECD recombinant protein (human, UniProt O00241 30-371).
T3 construct: range 1-371; cloned range includes the signal peptide; also called hSIRPβ; not shown: human IgG Fc region (hFc) of the pCPC vector
T3 sequence (O00241 30-371 limits assumed, form in doubt): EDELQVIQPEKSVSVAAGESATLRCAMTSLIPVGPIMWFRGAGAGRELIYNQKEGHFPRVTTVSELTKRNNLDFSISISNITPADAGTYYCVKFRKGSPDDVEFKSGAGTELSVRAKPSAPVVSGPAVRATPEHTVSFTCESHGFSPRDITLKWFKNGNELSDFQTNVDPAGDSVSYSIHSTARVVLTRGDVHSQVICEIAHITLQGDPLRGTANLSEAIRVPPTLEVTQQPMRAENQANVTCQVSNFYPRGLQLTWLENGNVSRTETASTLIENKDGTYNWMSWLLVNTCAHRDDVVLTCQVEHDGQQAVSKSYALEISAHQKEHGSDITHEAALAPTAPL
Briefly: ELISA. The method, then: as §1, §2

The target in test [4] is T1, Fc tagged human SIRPα v1 ECD …. The test can be described thus: ELISA. The procedure:
as §1, §2
This is another data set of the same source.

For test [5], the target named is T2, Fc tagged human SIRPα v2 ECD …. Briefly: ELISA. The procedure: as §1, §2
This is another data set of the same source.

The target of test [6] is T3, Fc tagged human SIRPβ ECD recombinant …. Briefly: ELISA. The method, then: as §1, §2
The source holds these as a separate data set.

Test [7] addresses T4, full length human SIRPα v1 stably expressed on CHOK1 cells (human, UniProt P78324 31-504).
T4 construct: whole, on cells; also called CHOK1-human SIRPα v1-1B4 cells; CHOK1-human SIRPα v1
Briefly: FACS on CHOK1 cells.

Test [8] addresses T4, full length human SIRPα v1 stably …. Briefly: FACS on CHOK1 cells. The procedure: Species cross reactivity of the purified hybridoma antibodies against human, cyno and mouse SIRPα was determined by FACS assay using CHOK1-human SIRPα v1-1B4 cells, CHOK1-cyno SIRPα-2A2 cells, and CHOK1-C57BL/6 mouse SIRPα-2.22 cells, which stably expressing SIRPα protein. Briefly the antibodies were incubated with 2×10⁵ target cells at 4° C. for 1 hour. After washing, fluorescence labeled anti-mouse or anti-human IgG 2nd antibody (Life Technologies) was added and incubated at 4° C. for 1 hour. Geometric median fluorescence intensity was detected and EC₅₀ was calculated. In particular, it is noted, in contrast to the other antibodies tested in the same experiment, 060 cannot bind with cyno SIRPα and 035 has cross reactivity against C57BL/6 mouse SIRPα. […]
The source holds these as a separate data set.

The target is the same in test [9]. Briefly: FACS on CHOK1 cells. The method, then: (§3) Species cross reactivity of the purified hybridoma antibodies against human, cyno and mouse SIRPα was determined by FACS assay using CHOK1-human SIRPα v1-1B4 cells, CHOK1-cyno SIRPα-2A2 cells, and CHOK1-C57BL/6 mouse SIRPα-2.22 cells, which stably expressing SIRPα protein. Briefly the antibodies were incubated with 2×10⁵ target cells at 4° C. for 1 hour. After washing, fluorescence labeled anti-mouse or anti-human IgG 2nd antibody (Life Technologies) was added and incubated at 4° C. for 1 hour. Geometric median fluorescence intensity was detected and EC₅₀ was calculated. In particular, it is noted, in contrast to the other antibodies tested in the same experiment, 060 cannot bind with cyno SIRPα and 035 has cross reactivity against C57BL/6 mouse SIRPα.
as §2
The source holds these as a separate data set.

The target of test [10] is T5, full length C57BL/6 mouse SIRPα stably expressed on CHOK1 cells (mouse (C57BL/6), UniProt P97797 32-513).
T5 construct: whole, on cells; also called CHOK1-C57BL/6 mouse SIRPα-2.22 cells
T5 sequence (looked up): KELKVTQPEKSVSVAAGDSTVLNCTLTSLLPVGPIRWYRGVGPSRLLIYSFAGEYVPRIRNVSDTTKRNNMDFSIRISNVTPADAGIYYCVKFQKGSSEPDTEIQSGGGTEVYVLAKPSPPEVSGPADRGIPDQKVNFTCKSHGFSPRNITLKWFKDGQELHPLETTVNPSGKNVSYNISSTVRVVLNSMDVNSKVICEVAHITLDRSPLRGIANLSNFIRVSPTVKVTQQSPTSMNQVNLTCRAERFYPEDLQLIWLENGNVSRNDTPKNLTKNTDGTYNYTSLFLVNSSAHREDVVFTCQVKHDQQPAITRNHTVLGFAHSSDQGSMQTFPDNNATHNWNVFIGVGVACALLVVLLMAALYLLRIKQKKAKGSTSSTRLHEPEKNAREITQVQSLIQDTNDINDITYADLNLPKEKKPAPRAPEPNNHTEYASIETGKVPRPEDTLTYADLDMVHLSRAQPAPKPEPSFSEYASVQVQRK
The test can be described thus: FACS on CHOK1 cells. The method, then: as §3, §2

Where two headings read alike, the source gives them in different places.

T4 sequence (P78324 31-504): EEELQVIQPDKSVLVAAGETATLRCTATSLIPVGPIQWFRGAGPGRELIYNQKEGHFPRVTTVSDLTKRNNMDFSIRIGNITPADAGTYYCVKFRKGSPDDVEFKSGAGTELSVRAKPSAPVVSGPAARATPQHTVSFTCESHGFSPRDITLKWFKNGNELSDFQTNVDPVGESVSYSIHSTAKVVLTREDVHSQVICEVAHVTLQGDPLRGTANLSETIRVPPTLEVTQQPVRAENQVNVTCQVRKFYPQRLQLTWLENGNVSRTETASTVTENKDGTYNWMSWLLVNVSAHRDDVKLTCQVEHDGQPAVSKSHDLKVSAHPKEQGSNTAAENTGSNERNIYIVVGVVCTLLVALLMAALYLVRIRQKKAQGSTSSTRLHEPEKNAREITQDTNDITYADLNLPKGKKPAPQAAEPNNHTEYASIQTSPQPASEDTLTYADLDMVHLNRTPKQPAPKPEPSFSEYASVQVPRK
T1 sequence (P78324 31-370 limits assumed): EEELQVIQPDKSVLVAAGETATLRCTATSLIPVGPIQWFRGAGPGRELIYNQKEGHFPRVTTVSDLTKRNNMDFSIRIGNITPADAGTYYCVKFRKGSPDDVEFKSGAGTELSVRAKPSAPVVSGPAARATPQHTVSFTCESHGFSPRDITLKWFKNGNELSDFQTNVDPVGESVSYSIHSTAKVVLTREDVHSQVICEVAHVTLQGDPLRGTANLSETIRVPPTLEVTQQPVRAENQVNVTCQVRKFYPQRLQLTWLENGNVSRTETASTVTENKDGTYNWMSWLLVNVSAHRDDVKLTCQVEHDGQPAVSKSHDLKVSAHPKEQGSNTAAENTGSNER

B1: reference antibody 29-AM4-5 (antibody, V domains shown)
VH: EVQLVESGGGLVQPGGSLRLSCAASGFNISYYFIHWVRQAPGKGLEWVASVYSSFGYTYYADSVKGRFTISADTSKNTAYLQMNSLRAEDTAVYYCARFTFPGLFDGFFGAYLGSLDYWGQGTLVTVSS
VL: DIQMTQSPSSLSASVGDRVTITCRASQSVSSAVAWYQQKPGKAPKLLIYSASSLYSGVPSRFSGSRSGTDFTLTISSLQPEDFATYYCQQAVNWVGALVTFGQGTKVEIK
As usually defined, the EC50 is the concentration needed to bring the measured effect to its halfway point. As to B1, the EC50 was 110 pM in test [1]; 80 pM in test [2]; 80 pM in [3]; 110 pM in test [4]; 80 pM in test [5]; 80 pM in test [6]. Also, the 50% effective concentration (EC50) in [7], in test [8] and in test [9] was 13600 pM in each case. For the same molecule, in [10], the binding result is reported as “no binding (tested: 10 nM)”.

The values are drawn from patent US20210347908A1 (ELPISCIENCE SUZHOU BIOPHARMA, published 2021).
